Results published in publication PMC11418112.
Substitutions are numbered along the chain they refer to. In names and notes the source's numbering stands. Where two headings read alike, the source gives them in different places.

Tests used:
[1] = biological target: T1, SpoIIAA-P (phosphorylated SpoIIAA) (B. subtilis) (UniProt P10727)
T1 sequence (chain, phosphoserine at 58 (32P in the labelled tracer)): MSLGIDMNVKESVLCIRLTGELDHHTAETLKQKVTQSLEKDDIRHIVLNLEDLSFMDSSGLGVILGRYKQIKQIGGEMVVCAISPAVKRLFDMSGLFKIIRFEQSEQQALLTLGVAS

[2] = biological target: T2, RsbV-P (phosphorylated RsbV) (B. subtilis) (UniProt P17903)
T2 sequence (chain, phosphoserine at 56 (32P)): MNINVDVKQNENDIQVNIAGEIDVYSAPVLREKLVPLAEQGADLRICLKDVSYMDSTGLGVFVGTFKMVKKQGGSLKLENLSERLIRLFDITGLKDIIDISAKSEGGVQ

[3] = biological target: T1, SpoIIAA-P (phosphorylated SpoIIAA) (B. subtilis); remark: listed apart in the source
[4] = biological target: T1, SpoIIAA-P (phosphorylated SpoIIAA) (B. subtilis); remark: listed apart in the source
[5] = biological target: T3, SpoIIAA^R67T, phosphorylated (B. subtilis) (UniProt P10727)
T3 sequence (chain, phosphoserine at 58): T1 sequence (chain, phosphoserine at 58 (32P in the labelled tracer)) with R67T

[6] = biological target: T1, SpoIIAA-P (phosphorylated SpoIIAA) (B. subtilis); remark: listed apart in the source
[7] = biological target: T3, SpoIIAA^R67T, phosphorylated (B. subtilis); remark: listed apart in the source
[8] = biological target: T2, RsbV-P (phosphorylated RsbV) (B. subtilis); remark: listed apart in the source
[9] = biological target: T2, RsbV-P (phosphorylated RsbV) (B. subtilis); remark: listed apart in the source
[10] = biological target: T1, SpoIIAA-P (phosphorylated SpoIIAA) (B. subtilis); remark: listed apart in the source

B1: SpoIIE phosphatase domain (SpoIIE^590-827) (domain or fragment)
chain: SYRVSTGAAHAAKGGGLVSGDSYSMMELGARKYAAAISDGMGNGARAHFESNETIKLLEKILESGIDEKIAIKTINSILSLRTTDEIYSTLDLSIIDLQDASCKFLKVGSTPSFIKRGDQVMKVQASNLPIGIINEFDVEVVSEQLKAGDLLIMMSDGIFEGPKHVENHDLWMKRKMKGLKTNDPQEIADLLMEEVIRTRSGQIEDDMTVVVVRIDHNTPKWASIPVPAIFQNKQEIS
Q: How did the KM for SpoIIAA-P (multiple turnover, 10 mM MgCl2, Michaelis-Menten fit) [1] turn out when B1 was run?
A: 28.7 µM

Q: And the kcat of SpoIIAA-P dephosphorylation (multiple turnover, 10 mM MgCl2, Michaelis-Menten fit) [1]?
A: 0.39 min^–1

Q: What about the kcat/KM of SpoIIAA-P dephosphorylation (multiple turnover, 0.1 μM SpoIIE, 10 mM MgCl2) [1] of the same binder?
A: 0.011 μM^–1 min^–1

Q: And the KM for RsbV-P (single turnover, varying SpoIIE, 10 mM MnCl2, Michaelis-Menten fit) [2]?
A: 12.8 µM

Q: And the kcat of RsbV-P dephosphorylation (single turnover, 10 mM MnCl2, Michaelis-Menten fit) [2]?
A: 0.0086 min^–1

Q: And the kcat/KM of RsbV-P dephosphorylation (single turnover, 0.15 μM RsbV-P, 10 mM MnCl2) [2]?
A: 0.00045 μM^–1 min^–1

Q: What about the KM for SpoIIAA-P as printed in the legend of Figure 4B (multiple turnover, 10 mM MgCl2) [3] of the same binder?
A: 0.39 µM

Q: And the kobs of SpoIIAA-P dephosphorylation over time (0.1 μM SpoIIE, 0.5 μM SpoIIAA-P, 10 mM MnCl2) [4]?
A: 0.98 min^–1

Q: What about the kobs of SpoIIAA^R67T dephosphorylation over time (0.1 μM SpoIIE, 10 mM MnCl2) [5] of the same binder?
A: 0.056 min^–1

B2: SpoIIE^I723S (phosphatase domain, SpoIIE^590-827) (domain or fragment)
chain: B1 chain with I134S
Q: How did the fold decrease in rate of dephosphorylation of SpoIIAA-P, against SpoIIE (Fig. S6) [6] turn out when B2 was run?
A: 2 fold

Q: What about the fold decrease in rate of dephosphorylation of SpoIIAA^R67T, against SpoIIE (Fig. S6) [7] of the same binder?
A: 2 fold

Q: And the KM for SpoIIAA-P (multiple turnover, 10 mM MgCl2, Michaelis-Menten fit) [1]?
A: 29.1 µM

Q: And the kcat of SpoIIAA-P dephosphorylation (multiple turnover, 10 mM MgCl2, Michaelis-Menten fit) [1]?
A: 0.036 min^–1

Q: What about the kcat/KM of SpoIIAA-P dephosphorylation (multiple turnover, 0.1 μM SpoIIE, 10 mM MgCl2) [1] of the same binder?
A: 0.001 μM^–1 min^–1

Q: And the KM for RsbV-P (single turnover, varying SpoIIE, 10 mM MnCl2, Michaelis-Menten fit) [2]?
A: 47.6 µM

Q: And the kcat of RsbV-P dephosphorylation (single turnover, 10 mM MnCl2, Michaelis-Menten fit) [2]?
A: 0.018 min^–1

Q: What about the kcat/KM of RsbV-P dephosphorylation (single turnover, 0.15 μM RsbV-P, 10 mM MnCl2) [2] of the same binder?
A: 0.00028 μM^–1 min^–1

B3: SpoIIE^P752R (phosphatase domain, SpoIIE^590-827) (domain or fragment)
chain: B1 chain with P163R
Q: For B3, which KM for SpoIIAA-P (multiple turnover, 10 mM MgCl2, Michaelis-Menten fit) [1] is on record?
A: 38.6 µM

Q: And the kcat of SpoIIAA-P dephosphorylation (multiple turnover, 10 mM MgCl2, Michaelis-Menten fit) [1]?
A: 0.15 min^–1

Q: And the kcat/KM of SpoIIAA-P dephosphorylation (multiple turnover, 0.1 μM SpoIIE, 10 mM MgCl2) [1]?
A: 0.0039 μM^–1 min^–1

Q: What about the KM for RsbV-P (single turnover, varying SpoIIE, 10 mM MnCl2, Michaelis-Menten fit) [2] of the same binder?
A: 79.3 µM

Q: And the kcat of RsbV-P dephosphorylation (single turnover, 10 mM MnCl2, Michaelis-Menten fit) [2]?
A: 0.15 min^–1

Q: What about the kcat/KM of RsbV-P dephosphorylation (single turnover, 0.15 μM RsbV-P, 10 mM MnCl2) [2] of the same binder?
A: 0.0035 μM^–1 min^–1

B4: SpoIIE^3X (triple mutation of E675S, I723S, and P752R; phosphatase domain) (domain or fragment)
chain: B1 chain with E86S, I134S, P163R
Q: B4 was tested. Which kcat/KM of RsbV-P dephosphorylation, fold change against SpoIIE (Fig. 4C) [8] did it give?
A: 5 fold

Q: What about the KM for RsbV-P (single turnover, varying SpoIIE, 10 mM MnCl2, Michaelis-Menten fit) [9] of the same binder?
A: 29.1 µM

Q: What about the kcat of RsbV-P dephosphorylation (single turnover, 10 mM MnCl2, Michaelis-Menten fit) [9] of the same binder?
A: 0.043 min^–1

Q: What about the kcat of SpoIIAA-P dephosphorylation (multiple turnover, 10 mM MgCl2, Michaelis-Menten fit) [3] of the same binder?
A: 0.011 min^–1

Q: And the kcat/KM of SpoIIAA-P dephosphorylation (multiple turnover, 0.1 μM SpoIIE, 10 mM MgCl2) [3]?
A: 0.00011 μM^–1 min^–1

B5: SpoIIE^E675S (phosphatase domain, SpoIIE^590-827) (domain or fragment)
chain: B1 chain with E86S
Q: Which results are given for B5?
A: fold decrease in activity toward SpoIIAA-P with manganese as the metal cofactor, against SpoIIE (Fig. S5) [10]: 2 fold; KM for SpoIIAA-P (multiple turnover, 10 mM MgCl2, Michaelis-Menten fit) [1]: 18.3 µM; kcat of SpoIIAA-P dephosphorylation (multiple turnover, 10 mM MgCl2, Michaelis-Menten fit) [1]: 0.02 min^–1; kcat/KM of SpoIIAA-P dephosphorylation (multiple turnover, 0.1 μM SpoIIE, 10 mM MgCl2) [1]: 0.001 μM^–1 min^–1; KM for RsbV-P (single turnover, varying SpoIIE, 10 mM MnCl2, Michaelis-Menten fit) [2]: 95.7 µM; kcat of RsbV-P dephosphorylation (single turnover, 10 mM MnCl2, Michaelis-Menten fit) [2]: 0.063 min^–1; kcat/KM of RsbV-P dephosphorylation (single turnover, 0.15 μM RsbV-P, 10 mM MnCl2) [2]: 0.00058 μM^–1 min^–1; kobs of SpoIIAA-P dephosphorylation over time (0.1 μM SpoIIE, 0.5 μM SpoIIAA-P, 10 mM MnCl2) [4]: 0.23 min^–1; kobs of SpoIIAA^R67T dephosphorylation over time (0.1 μM SpoIIE, 10 mM MnCl2) [5]: 0.086 min^–1
